T1: recombinant human soluble gpNMB (recombinant human gpNMB-FLAG-His) (human, UniProt Q14956 23-498)
T1 sequence: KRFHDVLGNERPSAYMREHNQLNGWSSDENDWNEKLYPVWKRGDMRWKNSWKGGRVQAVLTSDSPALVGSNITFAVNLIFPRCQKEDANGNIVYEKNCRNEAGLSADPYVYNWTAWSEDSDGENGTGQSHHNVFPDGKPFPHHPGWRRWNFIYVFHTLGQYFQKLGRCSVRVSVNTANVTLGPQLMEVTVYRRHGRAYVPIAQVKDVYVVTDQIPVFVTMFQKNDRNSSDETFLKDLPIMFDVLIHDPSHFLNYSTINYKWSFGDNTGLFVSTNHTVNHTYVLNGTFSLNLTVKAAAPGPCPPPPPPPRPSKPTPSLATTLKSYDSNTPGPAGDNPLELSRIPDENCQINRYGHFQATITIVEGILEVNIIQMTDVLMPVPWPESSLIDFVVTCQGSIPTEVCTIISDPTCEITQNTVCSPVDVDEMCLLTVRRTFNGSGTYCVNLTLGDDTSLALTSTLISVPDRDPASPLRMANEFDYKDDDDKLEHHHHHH

T2: recombinant mouse soluble gpNMB (recombinant mouse gpNMB-FLAG-His) (mouse, UniProt Q99P91 23-502)
T2 sequence: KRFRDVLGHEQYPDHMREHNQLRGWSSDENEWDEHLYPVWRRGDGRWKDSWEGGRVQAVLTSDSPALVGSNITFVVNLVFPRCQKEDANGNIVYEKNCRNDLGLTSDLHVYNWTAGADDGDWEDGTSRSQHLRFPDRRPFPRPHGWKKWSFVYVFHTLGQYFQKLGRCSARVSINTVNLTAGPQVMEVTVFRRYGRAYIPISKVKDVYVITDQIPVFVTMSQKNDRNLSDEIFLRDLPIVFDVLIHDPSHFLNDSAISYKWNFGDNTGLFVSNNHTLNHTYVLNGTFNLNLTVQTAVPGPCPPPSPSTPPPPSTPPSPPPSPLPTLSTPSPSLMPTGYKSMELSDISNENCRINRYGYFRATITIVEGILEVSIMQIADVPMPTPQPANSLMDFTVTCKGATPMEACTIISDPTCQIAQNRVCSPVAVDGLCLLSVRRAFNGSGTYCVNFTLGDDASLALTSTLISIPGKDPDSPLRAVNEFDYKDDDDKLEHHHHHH


Tests used:
[1] = molecular target: T1, recombinant human soluble gpNMB …; assay: SPR, antibody 100 nM over captured gpNMB-FLAG-His, 25C
[2] = molecular target: T2, recombinant mouse soluble gpNMB …; assay: as above
[3] = molecular target: T1, recombinant human soluble gpNMB …; assay: antigen ELISA
[4] = molecular target: T1, recombinant human soluble gpNMB …; assay: antigen ELISA, vs hGPN18-2_H2L3

Binder | Kd [1] [nM] | koff [1] [s⁻¹] | kon [1] [M⁻¹ s⁻¹] | Kd [2] [nM] | koff [2] [s⁻¹] | kon [2] [M⁻¹ s⁻¹] | EC50 [3] [nM] | Relative binding activity [4]
1-5E (antibody, V domains shown, obtained by immunization with a vaccine peptide of a previous report; also called vaccine peptide antibody) VH: EVQLQQSGAELVRSGASVKLSCTASGFNIKDYYMHWVKQRPDQGLEWIGWIDPENGDTEYAPKFQGKATMTADTSPNTAYLQLSSLTSEDTAVYYCNGVYYGSRGFFDYWGQGTTLTVSS VL: not shown |  |  |  | 9.1 | 0.0061 | 670000 |  | 
GPN18-1 (antibody, V domains shown, monoclonal with mouse IgG constant regions) VH: QVTLKESGPGILQPSQTLSLTCSFSGFSLSTSVMGVGWIRQPSGKGLEWLADIWWDDDKDYNPSLKSRLTISKDTSKNQVFLKIASVDTADTATYYCARAYYSNYEYYGMDYWGQGTSVTVSS VL: DVLMTQTPLSLPVSLGDQASISCRSSQSIVHSNGNTYLEWYLQKPGQSPKLLIYKVSNRFSGVPDRFSGSGSGTDFTLKISRVEAEDLGVYYCFQGSHVPFTFGSGTKLEIK | 14 | 0.00054 | 38000 | 24 | 0.00091 | 38000 |  | 
GPN18-7 (antibody, V domains shown, monoclonal with mouse IgG constant regions) VH: QVTLKESGPGILQPSQTLSLTCSFSGFSLSTSVMGVGWIRQPSGKGLEWLADIWWDDDKDYNPSLKSRLTISKDTSKNQVFLKIASVDTADTATYYCARAYYSNFEYYGMDYWGQGTSVTVSS VL: DVLMTQIPLSLPVSLGDQASISCRSSQTIVHSNGNTYLEWYLQKPGQSPKLLIYKVSNRFSGVPDRFSGSGSGTDFTLKISRVEAEDLGVYYCFQGSHVPFTFGSGTKLEIK | 23 | 0.00059 | 26000 | 49 | 0.00099 | 20000 |  | 
GPN18-4 (antibody, V domains shown, monoclonal with mouse IgG constant regions) VH: QVQLQQSGAELTKPGTSVKMSCKASGYTLSSYWMNWIKQRPGQGLEWIGTINPSNNYTAYNLKFKDKAMLTADKSSSTAYMQLSSLTSEDSAVYYCATWGYWGQGTTLTVSS VL: DIVMTQSHKFMSTSVGDRVSITCKASQDVSTAVAWHQQKPGQPPKLLIYSASYRYTGVPDRFTGSGSGTDFTFTISSVQTEDLAIYYCQHHYTTTWTFGGGTKLEIR | 0.32 | 1.5e-05 | 47000 | 3.8 | 0.00012 | 30000 |  | 
GPN09-1 (antibody, V domains shown, monoclonal with mouse IgG constant regions) VH: QVQLKASGPGLVQPSQTLSLTCTVSGLSLTSININWIRQPPGKGLEWMGVIWSDGDTDFNSAVKSRLSISRDTSKSQVFLNMNSLQTEDTAMYFCARGIRDWGQGVMVTVSS VL: DIVMTQTPLSLSVAIGQSASISCKSSQSLKYSDGKTYLNWVFQSPGQSPKRLIYQVSKLDSGVPDRFSGTGSETDFTLKISRVEAEDLGVYYCCQGSYSPHTFGSGTKLEIK |  |  |  | 2.6 | 0.00042 | 160000 |  | 
GPN05-1 (antibody, V domains shown, monoclonal with mouse IgG constant regions) VH: QVQLQQSGAELVRPGTSVKVSCKASGYAFSNHLIEWVKQRPGQGLEWIGVINPGSGGTNYIEKFKGKATLTADKSSSTAYMQLSSLTSDDSAVYFCARGANWDVGFAYWGQGTLVTVSA VL: EIQMTQSPSSMSASLGDRITITCQATQDIVKNLNWYQQKPGKPPSFLIYYATELAEGVPSRFSGSGSGSDFSLTISNLESEDFADYYCLQFHEFPRTFGGGTKLEIK | 3.3 | 0.00016 | 48000 | 20 | 0.0013 | 61000 |  | 
hGPN18-2_H2L3 VL E39A (antibody, V domains shown) VH: QVQLVQSGPGLVQPTQTLTLTCSFSGFSLSTSVMGVGWIRQPSGKGLEWLADIWWDDDKDYNPSLKSRLTISKDTSKNQVVLTMTNMDTVDTATYYCARTYYSNYEYYGMDYWGQGTLVTVSS VL: DIVMTQSPDSLAVSLGERATINCRSSQTIILSNGNTYLAWYQQKPGQPPKLLIYKVSNRFSGVPDRFSGSGSGTDFTLTISSLQAEDVAVYYCFQGSHVPFTFGSGTKLEIKR |  |  |  |  |  |  | 84.8 | 0.1
hGPN18-2_H2L3 VL F60A (antibody, V domains shown) VH: QVQLVQSGPGLVQPTQTLTLTCSFSGFSLSTSVMGVGWIRQPSGKGLEWLADIWWDDDKDYNPSLKSRLTISKDTSKNQVVLTMTNMDTVDTATYYCARTYYSNYEYYGMDYWGQGTLVTVSS VL: DIVMTQSPDSLAVSLGERATINCRSSQTIILSNGNTYLEWYQQKPGQPPKLLIYKVSNRASGVPDRFSGSGSGTDFTLTISSLQAEDVAVYYCFQGSHVPFTFGSGTKLEIKR |  |  |  |  |  |  | 2.28 | 1.12
GPN11-10 (antibody, V domains shown, monoclonal with mouse IgG constant regions) VH: QVNLLQSGAALVKPGASVRLSCKTSGYTFTDCYIHWVRQSHGKSLEWIGFINPNSGYTFYNEKFKSKATLTVAKSTNTAYMELSRLTSEDSATYFCTRGDYYTSNLYDWFAYWGQGTLVTVSS VL: DTVMTQSPASMSTSVGERVTVNCKASQTVGTVVAWFQQKPGQSPKRLIYWATNRHTGVPDRFTGSGFGRDFSLTISNVEAEDLAVYYCLQYGSVPPTFGGGTKLELK | 13 | 0.001 | 81000 | 4.9 | 0.00037 | 75000 |  | 
GPN06-1 (antibody, V domains shown, monoclonal with mouse IgG constant regions) VH: QVQLQQPGAEIVRPGASVKLSCKASGYTFTDNWMGWVKQRPGQGLEWIGAIDPSDSFTNYNQNFKGKATLTVDTSSSTAYMQLSSLTSEDSAVYFCTRSGYYGSPKLGGDYWGQGTTLTVSS VL: QIVLTQSPAIMSASLGEEITLTCSASSSISYMHWYQQKSGTSPKLLIYSTSNLASGVPSRFSGSGSGTFYSLTISSVEAEDAADYYCHQWNSYPCTFGGGTKLEIK | 1.4 | 0.00049 | 340000 | 12 | 0.0018 | 150000 |  | 

Further binders by falling Kd [2], results first:

Kd [1] [nM] | koff [1] [s⁻¹] | kon [1] [M⁻¹ s⁻¹] | Kd [2] [nM] | koff [2] [s⁻¹] | kon [2] [M⁻¹ s⁻¹] | EC50 [3] [nM] | Relative binding activity [4] | Binder
24 | 0.00065 | 27000 | 31 | 0.00098 | 32000 |  |  | GPN18-6 (antibody, V domains shown, monoclonal with mouse IgG constant regions) VH: EVQLQQSGPELVMPGSSVKISCKASGYTFTDYYMNWVRQSHGKSLEWIGDINPINGDITYNQKFKGKATLTVDKSSSTDYMELRGLTSEDSAVYYCAREAFFGYKGNYFDYWGQGTTLTVSS VL: not shown
2 | 0.0003 | 150000 | 7.7 | 0.0007 | 91000 |  |  | GPN18-5 (antibody, V domains shown, monoclonal with mouse IgG constant regions) VH: QVQLQQSGAELAKPGTSVKMSCKASGYTFTTYWMNWVKQRPGQDLEWIGAINPSNDYTEYNQKFKDKAILTADKSSNTAYMQLSSLTSEDSAVYYCGRSYSPDYWGQGTTLTVSS VL: DIVMTQSQKFMSTSVGDRVSVTCKASQNVDNHVAWHQQKPGQSPKALIYSASYRYSGVPDRFTGSGSGTDFTLTIRDVQSEDLADYFCQQYKSYPFTFGSGTELEIK
2.2 | 6.8e-05 | 31000 | 3.3 | 7.9e-05 | 24000 |  |  | GPN18-2 (antibody, V domains shown, monoclonal with mouse IgG constant regions) VH: QVTLKESGPGILQPSQTLSLTCSFSGFSLSTSVMGVGWIRQPSGKGLEWLADIWWDDDKDYNPSLKSRLTISKDTSKNQVFLKIASVDTADTATYYCARTYYSNYEYYGMDYWGQGTSVTVSS VL: DVLMTQTPLSLPVSLGDQASISCRSSQTIILSNGNTYLEWYLQKPGQSPKLLIYKVSNRFSGVPDRFSGSGSGTDFTLKISRVEAEDLGVYYCFQGSHVPFTFGSGTKLEIK
2.9 | 0.00037 | 130000 | 2.9 | 0.00036 | 130000 |  |  | GPN15-3 (antibody, V domains shown, monoclonal with mouse IgG constant regions) VH: QVTLKESGPGILQPSQTLSLTCSFSGFSLTTSGMGVGWIRQPSGKGLEWLADMWWDDDKNYNPSLKSRLTISKDNSKKQVFLKIASVDTADTATYYCARRVYSSWFAYWGQGTLVTVSA VL: DIVMTQSQKFMSTSVGDRVSVTCKASQNVGANVAWYQQKPGQSPKTLIYSASYRYGGVPDRFTGSGSGTDFTFTITNVQSEDLAEYFCQQYNNYPLTFGAGTKLDLK
0.0035 | 6e-07 | 170000 | 2 | 0.00028 | 140000 |  |  | GPN15-2 (antibody, V domains shown, monoclonal with mouse IgG constant regions) VH: QVQLQQPGAELVKPGASVKMSCKASGYTFTNHNMHWVKQTPGQGLEWIGAFYTGNGDTSYNQKFKGKATLTADKSSSTAYIQLSSLTSEDSAVYYCARERYDGYYIAMDYWGQGTSVTVSS VL: QIVLTQSPAFMSVSPGEKVTMTCSASSSVYYMFWYQQKPRSSPKPWIYLTSKLASGVPARFSGSGSGTSYSVTISSMEAEDAATYYCQQWSSNPQWTFGGGTKLEIK

— patent EP4772193A1 (Teijin Pharma Limited, dated 2026)
